The nanobody polyreactivity screen of Harvey et al. (2022)

Experiment: yeast display, Sf9 membrane polyspecificity reagent, FACS + sequencing; frameworks hold sequencing errors
How it was run: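 Synthetic nanobody libraries on Saccharomyces cerevisiae BJ5465 were galactose-induced for 36–48 hours, stained 1 hour at 4 °C with 10% biotinylated, detergent-solubilized Sf9 membrane reagent and enriched on streptavidin microbeads. FACS then separated cells into low and high (top ~1%) gates by anti-HA (expression) and streptavidin (reagent binding) fluorescence. Genes were colony-PCR amplified, MiSeq 2 × 250 sequenced and CDR-length filtered. A clone's polyreactivity label is that of its gate of origin.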
In the case of “QVQLVESGGGLVQAGGSLRLSCAASGFTFFVNAMGWYRQAPGKERELVAAISIRSGGRTYYADSVKGRFTISRDNAKNTVYLQMNSLKPEDTAVYYCAAESSRPEHTYHYYRFLFDYWGQGTQVTVSS”, the “polyreactivity (PSR sort gate)” value was “low polyreactivity”.
For “QVQLVESGGGLVQAGGSLRLSCAASGFTFFYNAMGWYRQAPGKEREFVAAISGRGGTTYYADSVKGRFTISRDNAKNTVYLQMNSLKPEDTAVYYCAARSVSTLRYTSRKLRYDYWGQGTQVTVSS”, the “polyreactivity (PSR sort gate)” value was “high polyreactivity”.
In the case of “QVQLVESGGGLVQAGGSLRLSCAASGFTFFYYDMGWYRQAPGKERELVADITTGGSTYYADSVKGRFTISRDNAKNTVYLQMNSLKPEDTAVYYCAALLYVSNSYRWWPWDGEDYWGQGTQVTVSS”, the “polyreactivity (PSR sort gate)” value was “high polyreactivity”.
With “QVQLVESGGGLVQAGGSLRLSCAASGFTFFYYVMGWYRQAPGKERELVAAISQHGGSTYYADSVKGRFTISRDNAKNTVYLQMNSLKPEDTAVYYCAASPVVNRRGTYGYWGQGTQVTVSS” the “polyreactivity (PSR sort gate)” value was “high polyreactivity”.
For “QVQLVESGGGLVQAGGSLRLSCAASGFTFGENAMGWYRQAPGKEWELVATISDSGDSTYYADSVKGRFTISRDNAKNTVYLLMNSLKPEDTAVYDCNAEQVCYTYGRYPEWYLYGYWGQGTQVTVSS”, the “polyreactivity (PSR sort gate)” value was “low polyreactivity”.
For “QVQLVESGGGLVQAGGSLRLSCAASGFTFGFYAMGWYRQGPGKERELVAASTRSGGTTYYADSVKGRFTISRDNAKNTVYLQMNSLKPEDTAVYYCAADYTKYYRRYYYWGQGTQVTVSS”, the “polyreactivity (PSR sort gate)” value was “high polyreactivity”.
In the case of “QVQLVESGGGLVQAGGSLRLSCAASGFTFGGNDMGWYSQAPGKERELVAAIRSSGDTTYYADSVKGRFTISRDNAKNTVYLQMNSLKPEDTAVSYCAAYSHHQFSRSEYYYWGKGTQVTVSS”, the “polyreactivity (PSR sort gate)” value was “low polyreactivity”.
In the case of “QVQLVESGGGLVQAGGSLRLSCAASGFTFGGNVMGWYRQAPGKERELVAAIRGTGGNTYYADSVKGRFTISRDNAKNTVYLQMNSLKPEDTAVYYCAAAQRELPTVRRNYWGQGTQVTVSS”, the “polyreactivity (PSR sort gate)” value was “high polyreactivity”.
With “QVQLVESGGGLVQAGGSLRLSCAASGFTFGGYAMGWYRQAPGKERELVAAIRASGGSTYYADSVKGRFTISRDNAKNTVYLQMNSLKPEDTAVYYCNADIWYKTYDYWGQGTQVTVSS” the “polyreactivity (PSR sort gate)” value was “low polyreactivity”.
With “QVQLVESGGGLVQAGGSLRLSCAASGFTFGGYAMGWYRQAPGKERELVAAIRSSGDTTYYADSVKGRFTISRDNAKNTVYLQMNSLKPEDTAVYYCAAYSHHQFSRSEYYYWGQGTQVTVSS” the “polyreactivity (PSR sort gate)” value was “low polyreactivity”.
With “QVQLVESGGGLVQAGGSLRLSCAASGFTFGGYAMGWYRQAPGKERELVAAISKSGGRTYYADSVKGRFTISRDNAKNTVYLQMNSLKPEDTAVYYCAASTIWHYDSWGQGTQVTVSS” the “polyreactivity (PSR sort gate)” value was “high polyreactivity”.
For “QVQLVESGGGLVQAGGSLRLSCAASGFTFGGYVMGWYRQAPGKERELVAAISSSGGITHYADSVKGRFTISRDNAKNTVYLQMNSLKPEDTAVYYCNALYRQRYYWGQGTQVTVSS”, the “polyreactivity (PSR sort gate)” value was “high polyreactivity”.
With “QVQLVESGGGLVQAGGSLRLSCAASGFTFGHYALGWYRQATGKERELVAAITRSGGNTYYADSVKGRFTISRYNAKNTVYLQMNSLKPEDTAVYYCAARLGWVYYSRSRYGYWGQGTQVTVSS” the “polyreactivity (PSR sort gate)” value was “high polyreactivity”.
With “QVQLVESGGGLVQAGGSLRLSCAASGFTFGHYAMGWYRPAPGKERELVAAISSGDRTYYADSVKGRFTISRDNAKNTVYLQMNSLKPEDTAVYYCNAVYYSWAQSARFDYWGQGTQVTVSS” the “polyreactivity (PSR sort gate)” value was “low polyreactivity”.
With “QVQLVESGGGLVQAGGSLRLSCAASGFTFGHYAMGWYRQAPGKERELVAAISIDGGRTYYADSVKGRFTISRDNAKNTVYLQMNSLKPEDTAVYYCAAAVAGRKMGYWGQGTQVTVSS” the “polyreactivity (PSR sort gate)” value was “high polyreactivity”.
In the case of “QVQLVESGGGLVQAGGSLRLSCAASGFTFGKNAMGWYRQAPGKERELVAAIDTGDRTNYADSVKGRFTISRDNAKNTVYLQMNSLKPEDTAVYYCATDVVFSSYDYWGQGTQVTVSS”, the “polyreactivity (PSR sort gate)” value was “low polyreactivity”.
